The text below walks through data of paper PMC6265462.

For this data set, the target named is T1, Pho7-DBD (279-339) (Schizosaccharomyces pombe, UniProt O13658 279-339).
T1 sequence: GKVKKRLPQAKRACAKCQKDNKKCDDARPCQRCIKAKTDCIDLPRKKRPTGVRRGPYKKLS
The experiment in a line: crystal structure.

B1: tgp1 crystal duplex (dsDNA)
DNA 1: TCCTTCGGACATTCAAATCA
DNA 2: GATTTGAATGTCCGAAGGAT
For B1, the binding result is given as “binds”.
